From US9249224B2 (RINAT NEUROSCIENCE CORP., priority 2011, dated 2016) come the findings set out here.

Experiment [1] concerns CT26 tumors. Nature of the experiment: CT26 syngeneic mouse model of colorectal cancer, tumor volume and weight. The class given is in vivo. The conditions noted are these: day 28, BALB/c mice bearing CT26 tumors, Ab11 10 mg/kg, irinotecan 100 mg/kg IP, hydrochloride.
Description: The CT26 cell line was used as a syngeneic mouse model of colorectal cancer. Mice were injected with tumor cells and dosed with the Ab11 antibody alone or in combination with iriniotecan.
BALB/c mice (BALB/cAnNCrl) were obtained from Charles River (Hollister, Calif., USA) and maintained in the animal facility at Rinat. […] The mice were housed in microisolators (filter top cages) under pathogen-free conditions with a 12-h light/12-h dark schedule and fed autoclaved standard chow and water throughout the experiment.
Cells were harvested by brief incubation with Accutase (A6964-100ML) (Sigma™ Aldrich, Inc., St. Louis, Mo., USA) and washed in new medium for counting. […]
Mice were dose intraperitoneally (IP) every second to third day. Tumor volume and body weight were measured at least twice a week. […]
The tumors were measured every 2-4 days with a digital caliper (mm). Baseline tumor volumes were calculated using the following formula: V=d2^2×(d½) where d1 was the longest diameter of the tumor and d2 was the perpendicular to d1. At the end of the study, while the study was still blinded, outliers were determined and excluded from all four groups. Tumors that were 3× standard error of the mean < mean and 3× standard error of the mean > mean on all days after day 14 (days 18, 22, 25, and 28) were determined outliers. Tumor weight at the end of the study was also measured.
For experiment [2], the system named is cyno GHR. Kind of experiment: STAT5 phosphorylation in vitro assay, cyno GHR-transfected HEK293 cells. Type of experiment: cell-based, cynomolgus monkey. The conditions noted are these: for fluorescent signal ave (phospho-STAT5): Table 8, cyno GHR-transfected cells. How it is done: This Example illustrates the effect of GHR antibodies in an in vitro STAT5 phosphorylation assay. In this Example, the ability of GHR antibodies to block GHR downstream signaling was tested in vitro using human GHR overexpressing cells and cyno GHR overexpressing cells.
Chain of cyno GHR (as listed by the source): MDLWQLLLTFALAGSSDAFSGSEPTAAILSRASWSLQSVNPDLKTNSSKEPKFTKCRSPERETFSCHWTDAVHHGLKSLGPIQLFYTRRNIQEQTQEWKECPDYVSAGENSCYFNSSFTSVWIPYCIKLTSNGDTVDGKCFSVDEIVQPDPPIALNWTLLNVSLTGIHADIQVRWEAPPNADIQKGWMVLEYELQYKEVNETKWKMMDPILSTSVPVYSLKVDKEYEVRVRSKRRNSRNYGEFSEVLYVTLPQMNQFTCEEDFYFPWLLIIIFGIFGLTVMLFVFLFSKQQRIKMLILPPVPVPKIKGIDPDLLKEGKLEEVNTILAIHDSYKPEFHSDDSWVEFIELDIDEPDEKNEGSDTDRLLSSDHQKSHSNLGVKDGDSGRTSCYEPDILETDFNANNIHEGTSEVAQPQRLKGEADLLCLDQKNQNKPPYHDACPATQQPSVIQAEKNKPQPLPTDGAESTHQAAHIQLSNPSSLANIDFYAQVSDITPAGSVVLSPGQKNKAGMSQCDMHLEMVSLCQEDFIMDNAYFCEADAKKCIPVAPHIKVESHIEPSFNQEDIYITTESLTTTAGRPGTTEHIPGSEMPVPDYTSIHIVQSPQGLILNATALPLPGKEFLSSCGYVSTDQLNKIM
GHR antagonist antibody Ab13 was tested for its ability to block STAT5 in an in vitro assay. HEK293 cells were transiently transfected with either DNA encoding full-length human GHR (SEQ ID NO: 140) or DNA encoding full-length cyno GHR (SEQ ID NO: 141). Cells were cultured in freestyle media for approximately 60 hours before testing. Cells were washed with DPBS (Dulbecco's Phosphate-Buffered Saline) and resuspended in Freestyle media, then counted using a hemocytometer. 1×10^6 cells were seeded per well in 6-well plates in 2 mls of Freestyle media. Cells were incubated for 2 hours at 37° C., then treated with 5, 50, or 500 nM Ab13 antibody in media. Cells were incubated at 37° C. with gentle mixing for 5 min with antibodies. 4.5 nM GH (Genotropin) was then added to all but control wells. Cells were incubated with GH at 37° C. with gentle mixing for 10 minutes.
Following incubation with GH, 2 ml of ice cold DPBS with 1× protease inhibitor cocktail (Roche) and 1 mM sodium orthovanadate (BioLabs) were added to each well and the plates were placed on ice. Cells were transferred to 5 ml tubes and spun down to create a cell pellet and the wash buffer was aspirated, leaving the cell pellet.
Reagents from Millipore™ MILLIPLEX® MAP Cell Signaling Buffer and Detection Kit (cat. #48-602) were used to lyse and treat the cell pellets. Millipore lysis buffer with 1× protease inhibitor cocktail and 1 mM sodium orthovanadate was added to each pellet at a volume of 200 ul/pellet. Cells were vortexed and incubated for 15 minutes at room temp with occasional vortexing. Millipore Assay buffer 2 with 1× protease inhibitor cocktail and 1 mM sodium orthovanadate was then added to the lysates at 300 ul/well.
Millipore™ MILLIPLEX® MAP Phospho STAT5N8 (Tyr694/699) MAPmate™ beads (Cat. #46-641) were resuspended in Assay Buffer 2 (from Millipore™ kit cat. #48-602) and loaded on a 96-well filter plate (provided in kit) at 25 ul/well, 25 ul/well of sample lysate was added to the wells and the beads and samples were incubated overnight at 4′C with shaking in the dark.
The liquid was then aspirated using a vacuum manifold and the remaining beads were washed using Millipore™ kit wash buffer. 25 ul Millipore™ kit detection antibody was added and incubated for 1 hour at room temperature with shaking in the dark. The detection antibody was vacuumed through and 25 ul kit streptavidin—Phycoerythrin was added and incubated in the dark for 15 min with shaking. 25 ul kit amplification buffer was then added and incubated for 15 min with shaking in the dark. The liquid was aspirated using a vacuum manifold, and the beads were resuspended in 150 ul kit assay buffer 2 and mixed on a shaker for 5 minutes before reading the plate.
The plate was read using a Luminex™ 200 instrument and fluorescent signal emitted from the samples was measured, The results of the STAT5 assay are shown in Tables 5 and 6. “Ave” indicates the average fluorescent signal, and “SEM” indicates the standard error of the mean.
Antibodies SS3 and SS1 (hIgG2Δa) were tested using a STAT5 phosphorylation assay. For the STAT5 assay, full-length human GHR overexpressing HEK293 cells or full-length cyno GHR-overexpressing HEK293 cells were cultured, counted by automated cell counter, and seeded in warm freestyle media in 12-well plates (5×10^5 cells/well in 1 ml media). Cells were allowed to settle for 3 hours at 37° C. then treated with 2.5, 5, 50, or 500 nM of SS1 or SS3 in media. […] Cells were incubated with GH at 37° C. with gentle mixing for 10 minutes.
Reagents from Millipore™ MILLIPLEX® MAP Cell Signaling Buffer and Detection Kit (cat, #48-602) were used to lyse and treat the cell pellets. […]

For experiment [3], the target named is T1, human GHR (Homo sapiens, UniProt P10912, I544L).
T1 construct: expressed in transfected cells; host or cells: HEK293
T1 sequence (P10912 19-638 I544L): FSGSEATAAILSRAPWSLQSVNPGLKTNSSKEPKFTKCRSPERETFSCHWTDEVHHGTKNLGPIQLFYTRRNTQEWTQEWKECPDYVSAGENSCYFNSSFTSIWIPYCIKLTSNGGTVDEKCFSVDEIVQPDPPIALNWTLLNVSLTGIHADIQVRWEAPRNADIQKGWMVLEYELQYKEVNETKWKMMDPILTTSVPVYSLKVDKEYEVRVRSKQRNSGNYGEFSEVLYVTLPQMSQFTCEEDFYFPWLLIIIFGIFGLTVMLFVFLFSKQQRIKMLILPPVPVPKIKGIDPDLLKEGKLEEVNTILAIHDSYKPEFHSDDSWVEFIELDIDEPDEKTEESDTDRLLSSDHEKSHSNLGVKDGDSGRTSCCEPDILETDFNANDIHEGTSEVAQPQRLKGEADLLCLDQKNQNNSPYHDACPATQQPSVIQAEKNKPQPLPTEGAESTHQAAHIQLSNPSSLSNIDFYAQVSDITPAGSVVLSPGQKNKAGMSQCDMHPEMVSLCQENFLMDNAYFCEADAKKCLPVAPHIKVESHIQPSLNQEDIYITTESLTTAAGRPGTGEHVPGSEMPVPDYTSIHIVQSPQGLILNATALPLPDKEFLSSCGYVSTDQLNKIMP
Nature of the experiment: STAT5 phosphorylation in vitro assay, human GHR-transfected HEK293 cells. The class given is cell-based. The conditions noted are these: for fluorescent signal ave (phospho-STAT5): Table 7, human GHR-transfected cells. Here is the method: This Example illustrates the effect of GHR antibodies in an in vitro STAT5 phosphorylation assay. In this Example, the ability of GHR antibodies to block GHR downstream signaling was tested in vitro using human GHR overexpressing cells and cyno GHR overexpressing cells. […]
Antibodies SS3 and SS1 (hIgG2Δa) were tested using a STAT5 phosphorylation assay. For the STAT5 assay, full-length human GHR overexpressing HEK293 cells or full-length cyno GHR-overexpressing HEK293 cells were cultured, counted by automated cell counter, and seeded in warm freestyle media in 12-well plates (5×10^5 cells/well in 1 ml media). Cells were allowed to settle for 3 hours at 37° C. then treated with 2.5, 5, 50, or 500 nM of SS1 or SS3 in media.
Millipore™ lysis buffer with 1× protease inhibitor cocktail and sodium orthovanadate was added to each pellet at a volume of 100 ul/pellet Cells were vortexed and incubated for 15 minutes at room temp with occasional vortexing, Millipore™ Assay buffer 2 with 1× protease inhibitor cocktail and 1 mM sodium orthovanadate was then added to the lysates at 200 ul/well.
25 ul/well of sample lysate was added to the wells and the beads and samples were incubated overnight at 4′C with shaking in the dark. […]
The plate was read using a Luminex 200 instrument and florescent signal emitted from the samples was measured.

Counter-ions that a name gives are not always drawn. Marks after values point to notes of the source that are not given here.

On to `CCc1c2c(nc3ccc(OC(=O)N4CCC(N5CCCCC5)CC4)cc13)-c1cc3c(c(=O)n1C2)COC(=O)[C@]3(O)CC` [Irinotecan, Irinotecan hydrochloride], for which the “Tumor weight (in grams), mean” value in experiment [1] is 1.2** g; in experiment [1] (listed as irinotecan), 1.2 g.
“GH: growth hormone, added at 4.5 nM to stimulate STAT5 signaling in GHR-transfected cells [reference compound]”: the “fluorescent signal Ave (phospho-STAT5)” value in experiment [2] (Table 6, cyno GHR-transfected cells, 4.5 nM GH alone) is 562. The “fluorescent signal ave (phospho-STAT5)” value in experiment [2] (4.5 nM GH alone) amounted to 847.

B1: SS3: humanized GHR antagonist antibody; VL SEQ ID NO: 9, VH SEQ ID NO: 10 (antibody, V domains shown)
VH: EVQLVESGGGLVKPGGSLRLSCAASGFTFSDAWMDWVRQAPGKGLEWVAEIRSKANNHATYYAESVKGRFTISRDDSKNTLYLQMNSLKTEDTAVYYCTLFRDYWGQGTLVTVSS
VL: EIVLTQSPGTLSLSPGERATLSCTATSSVSSSYLNWYQQKPGQAPRLLIYSTSNLASGIPDRFSGSGSGTDFTLTISRLEPEDFAVYYCHQYHRFTPTFGGGTKVEIK
modifications: Humanized and/or affinity matured antibody sequence
B1: the “fluorescent signal ave (phospho-STAT5)” value in experiment [3] (2.5 nM antibody + 4.5 nM GH) is given as 100; in experiment [3] (5 nM antibody + 4.5 nM GH), 48; in experiment [3] (50 nM antibody + 4.5 nM GH) it was 0; in experiment [3] (500 nM antibody + 4.5 nM GH) it was 0; in experiment [2] (2.5 nM antibody + 4.5 nM GH) it was 621; in experiment [2] (5 nM antibody + 4.5 nM GH), 518. Moreover, the “fluorescent signal ave (phospho-STAT5)” value in experiment [2] (50 nM antibody + 4.5 nM GH) amounted to 50; in experiment [2] (500 nM antibody + 4.5 nM GH), 8. The “effect on GH-stimulated STAT5 signaling” value in experiment [3] (cells expressing human GHR, 4.5 nM GH) was “blocked STAT5 signaling in a dose-dependent manner”; in experiment [2] (cells expressing cyno GHR, 4.5 nM GH), “blocked STAT5 signaling in a dose-dependent manner”.
